Measured values from patent US20250340613A1 (JOINT STOCK COMPANY BIOCAD, published 2025).

What was measured:
[1] = target: T1, Her3-H6F, Receptor tyrosine-protein kinase erbB-3 (Homo sapiens) aa 21-643 (Homo sapiens, UniProt P21860 21-643); assay: BLI Octet RED 384; antibody on ProA sensor, antigen 30 ug/ml (420.8 nM); response at end of association
T1 construct: not shown: His and FLAG tags implied by the name 'H6F'
Protocol: (§1) Experimental study of nonspecific binding of bispecific chimeric antibodies to non-target antigens was performed on Forte Bio Octert RED 384. Protein A (ProA) biosensors (ForteBio) were immersed into a solution containing antibodies at a concentration of 10 μg/ml for 150 seconds to immobilize same. The baseline was recorded in a 1×KB solution for 30 seconds. The antibody-loaded sensors were then immersed into wells containing non-target antigens at a concentration of 30 μg/ml for 150 seconds. Complex dissociation was then recorded for 30 seconds.
(§2) The reference sensors went through all the steps as the sensors used to record analyte sensograms did, with the exception of the association step—at the association step, the sensors were immersed in a kinetic buffer solution without analyte (the reference sensor signals were measured in parallel with the recording of the main sensograms). The reference signal was subtracted from the signal received on sensors interacting with the analyte during the processing of sensograms.
(§3) Sensograms were processed using ForteBio Octet Data Analysisn 9.0 software. To report no non-specific interaction, the recorded signal level was checked at the end of the association step (the response parameter).

[2] = target: T2, hCD38-Avi, ADP-ribosyl cyclase/cyclic ADP-ribose hydrolase 1 (Homo sapiens) aa 43-300 (Homo sapiens, UniProt P28907 43-300); assay: BLI Octet RED 384; antibody on ProA sensor, antigen 30 ug/ml (854.7 nM); response at end of association
T2 construct: range 43-300; not shown: Avi tag as the name implies
T2 sequence (looked up): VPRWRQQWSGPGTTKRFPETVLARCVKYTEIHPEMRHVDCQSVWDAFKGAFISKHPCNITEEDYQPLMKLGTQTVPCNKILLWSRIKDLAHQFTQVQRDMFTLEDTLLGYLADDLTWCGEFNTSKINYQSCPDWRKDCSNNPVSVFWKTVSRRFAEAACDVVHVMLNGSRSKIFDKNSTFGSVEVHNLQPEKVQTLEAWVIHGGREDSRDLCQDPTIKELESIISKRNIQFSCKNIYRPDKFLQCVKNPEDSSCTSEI
Protocol: as §1, §2, §3

[3] = target: T3, hAng2_H6F, Angiopoietin-2 (Homo sapiens) aa 19-496 (Homo sapiens, UniProt O15123 19-496); assay: BLI Octet RED 384; antibody on ProA sensor, antigen 30 ug/ml (510.2 nM); response at end of association
T3 construct: also called hAng-H6F; not shown: His and FLAG tags implied by the name 'H6F'
T3 sequence: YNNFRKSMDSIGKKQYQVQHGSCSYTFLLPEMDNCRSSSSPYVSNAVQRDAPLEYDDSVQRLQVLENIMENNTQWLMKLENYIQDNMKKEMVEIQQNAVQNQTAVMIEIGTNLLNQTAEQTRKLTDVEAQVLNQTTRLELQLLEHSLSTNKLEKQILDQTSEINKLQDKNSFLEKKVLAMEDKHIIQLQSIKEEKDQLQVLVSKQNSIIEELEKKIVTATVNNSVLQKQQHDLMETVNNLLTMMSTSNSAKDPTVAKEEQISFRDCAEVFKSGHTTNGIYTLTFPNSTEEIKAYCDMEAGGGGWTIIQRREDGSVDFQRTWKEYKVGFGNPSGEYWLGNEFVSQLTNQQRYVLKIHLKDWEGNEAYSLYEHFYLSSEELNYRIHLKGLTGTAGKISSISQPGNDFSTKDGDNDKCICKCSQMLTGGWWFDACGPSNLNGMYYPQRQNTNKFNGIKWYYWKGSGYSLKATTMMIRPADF
Protocol: as §1, §2, §3

[4] = target: T4, extracellular domain of the human CSF1R protein (hCSF1R_His) (Homo sapiens, UniProt P07333 20-512); assay: BLI Octet RED 384; antibody on ProA sensor, antigen 30 ug/ml (522.5 nM); response at end of association
T4 construct: range 20-512; Molecular weight 57.4 kDa; made in CHO cells; also called hCSF1_His; not shown: C-terminal His and FLAG tags
Protocol: as §1, §2, §3

[5] = target: T5, hisOX40, Tumor necrosis factor receptor superfamily member 4 (Homo sapiens) aa 26-210 (Homo sapiens, UniProt P43489 26-210); assay: BLI Octet RED 384; antibody on ProA sensor, antigen 30 ug/ml (1310 nM); response at end of association
T5 construct: range 26-210; The tag is put first only because the name begins with His; not shown: His tag as the name implies
T5 sequence (looked up): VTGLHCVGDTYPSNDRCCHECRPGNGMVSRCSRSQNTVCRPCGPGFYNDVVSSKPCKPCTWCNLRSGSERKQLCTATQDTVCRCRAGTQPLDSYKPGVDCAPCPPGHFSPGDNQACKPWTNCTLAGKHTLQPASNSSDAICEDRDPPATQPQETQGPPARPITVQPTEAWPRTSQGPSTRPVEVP
Protocol: as §1, §2, §3

[6] = target: T6, C-Avi-His-TEVs-HSA_hBCMA, Tumor necrosis factor receptor superfamily member 17 (Homo sapiens) aa 1-54 (Homo sapiens, UniProt Q02223 1-54); assay: BLI Octet RED 384; antibody on ProA sensor, antigen 30 ug/ml (391.2 nM); response at end of association
T6 construct: range 1-54; not shown: Avi, His, TEV site and HSA parts as the name implies
T6 sequence (looked up): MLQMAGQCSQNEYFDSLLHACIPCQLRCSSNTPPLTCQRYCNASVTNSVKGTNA
Protocol: as §1, §2, §3

[7] = target: T7, Macaca CSF1R_C-His, Macrophage colony-stimulating factor 1 receptor (Macaca mulatta) aa 20-513 (Macaca mulatta); assay: BLI Octet RED 384; antibody on ProA sensor, antigen 30 ug/ml (534.8 nM); response at end of association
T7 construct: range 20-513
Protocol: as §1, §2, §3

[8] = target: T8, IL5R-His, Interleukin-5 receptor subunit alpha (Homo sapiens) aa 22-342 (Homo sapiens, UniProt Q01344 22-342); assay: BLI Octet RED 384; antibody on ProA sensor, antigen 30 ug/ml (757.6 nM); response at end of association
T8 construct: not shown: His tag as the name implies
T8 sequence (looked up): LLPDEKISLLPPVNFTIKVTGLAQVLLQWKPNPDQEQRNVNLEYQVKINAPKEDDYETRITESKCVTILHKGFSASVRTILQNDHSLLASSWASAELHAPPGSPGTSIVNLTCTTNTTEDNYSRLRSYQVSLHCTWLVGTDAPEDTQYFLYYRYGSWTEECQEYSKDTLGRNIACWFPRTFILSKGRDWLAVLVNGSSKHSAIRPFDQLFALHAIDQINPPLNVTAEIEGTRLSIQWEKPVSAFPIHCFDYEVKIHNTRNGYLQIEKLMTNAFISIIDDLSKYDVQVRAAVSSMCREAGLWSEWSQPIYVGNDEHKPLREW
Protocol: as §1, §2, §3

T4 sequence (P07333 20-512 limits assumed): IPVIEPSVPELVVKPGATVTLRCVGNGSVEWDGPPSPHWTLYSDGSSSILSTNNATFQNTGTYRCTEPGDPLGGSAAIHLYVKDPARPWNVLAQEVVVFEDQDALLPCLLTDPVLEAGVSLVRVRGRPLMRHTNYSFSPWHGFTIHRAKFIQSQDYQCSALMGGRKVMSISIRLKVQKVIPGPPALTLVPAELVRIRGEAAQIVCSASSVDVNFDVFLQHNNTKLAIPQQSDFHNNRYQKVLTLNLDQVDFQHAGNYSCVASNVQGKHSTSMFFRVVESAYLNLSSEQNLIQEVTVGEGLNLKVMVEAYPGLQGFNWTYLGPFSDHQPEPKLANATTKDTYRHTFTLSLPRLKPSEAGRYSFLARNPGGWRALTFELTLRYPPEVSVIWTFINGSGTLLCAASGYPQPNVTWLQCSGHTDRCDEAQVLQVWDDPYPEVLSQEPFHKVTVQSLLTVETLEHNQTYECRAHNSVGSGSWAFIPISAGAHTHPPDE
T1 sequence (P21860 21-643 limits assumed): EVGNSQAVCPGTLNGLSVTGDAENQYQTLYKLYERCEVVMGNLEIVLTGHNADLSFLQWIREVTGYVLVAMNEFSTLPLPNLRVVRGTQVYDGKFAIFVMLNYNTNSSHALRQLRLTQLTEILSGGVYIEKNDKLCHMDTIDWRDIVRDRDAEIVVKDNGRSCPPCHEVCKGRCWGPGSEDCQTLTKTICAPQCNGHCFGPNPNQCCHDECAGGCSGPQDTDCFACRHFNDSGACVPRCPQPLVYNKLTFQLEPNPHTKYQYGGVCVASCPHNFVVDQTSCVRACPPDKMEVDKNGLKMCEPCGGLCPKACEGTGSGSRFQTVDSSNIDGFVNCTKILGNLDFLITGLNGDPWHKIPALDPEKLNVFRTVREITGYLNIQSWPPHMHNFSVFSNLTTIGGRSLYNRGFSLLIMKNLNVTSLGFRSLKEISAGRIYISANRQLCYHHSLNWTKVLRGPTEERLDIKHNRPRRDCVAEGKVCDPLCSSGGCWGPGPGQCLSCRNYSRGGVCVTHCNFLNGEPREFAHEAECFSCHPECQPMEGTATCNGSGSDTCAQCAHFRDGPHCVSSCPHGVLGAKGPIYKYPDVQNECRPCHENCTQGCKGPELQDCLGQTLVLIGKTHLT

Row | Binder | Signal level (nm) [1] | Signal level (nm) [2] | Signal level (nm) [3] | Signal level (nm) [4] | Signal level (nm) [5] | Signal level (nm) [6] | Signal level (nm) [7] | Signal level (nm) [8]
1 | 02-004, bivalent bispecific chimeric antibody that specifically binds to PD1 and CD20 (bispecific antibody, human IgG1, kappa, L234A L235A, Produced in CHO cells) heavy 1: QVQLVQSGGGLVQPGGSLRLSCAASGFTFSSYWMYWVRQVPGKGLEWVSAIDTGGGRTYYADSVKGRFAISRVNAKNTMYLQMNSLRAEDTAVYYCARDEGGGTGWGVLKDWPYGLDAWGQGTLVTVSSASTKGPSVFPLAPSSKSTSGGTAALGCLVKDYFPEPVTVSWNSGALTSGVHTFPAVLQSSGLYSLSSVVTVPSSSLGTQTYICNVNHKPSNTKVDKRVEPKSCDKTHTCPPCPAPEAAGGPSVFLFPPKPKDTLYITREPEVTCVVVDVSHEDPEVKFNWYVDGVEVHNAKTKPREEQYNSTYRVVSVLTVLHQDWLNGKEYKCKVSNKALPAPIEKTISKAKGQPREPQVCTLPPSRDELTKNQVSLSCAVKGFYPSDIAVEWESNGQPENNYKTTPPVLDSDGSFFLVSKLTVDKSRWQQGNVFSCSVMHEALHNHYTQKSLSLSPGK light 1: QPVLTQPLSVSVALGQTARITCGGNNIGSKNVHWYQQKPGQAPVLVIYRDSNRPSGIPERFSGSNSGNTATLTISRAQAGDEADYYCQVWDSSTAVFGTGTKLTVLQRTVAAPSVFIFPPSDEQLKSGTASVVCLLNNFYPREAKVQWKVDNALQSGNSQESVTEQDSKDSTYSLSSTLTLSKADYEKHKVYACEVTHQGLSSPVTKSFNRGEC heavy 2: not shown light 2: DIQMTQSPSSLSASVGDRVTITCRASSSVSYMHWYQQKPGKAPKPLIYAPSNLASGVPSRFSGSGSGTDFTLTISSLQPEDFATYYCQQWSFNPPTFGQGTKVEIKQRQVKPEAWLSSGPSPGPGRLQLVCHVSGFYPKPVWVMWMRGEQEQQGTQLGDILPNANWTWYLRATLDVADGEAAGLSCRVKHSSLEGQDIILYWRGSC | 0.0217 nm | 0.004 nm | 0.0212 nm | 0.0103 nm | 0.0103 nm | 0.0108 nm | 0.0236 nm | 0.0249 nm
2 | 02-005, bivalent bispecific chimeric antibody that specifically binds to PD1 and CD20 (bispecific antibody, human IgG1, kappa, L234A L235A, Produced in CHO cells) heavy 1: EVQLVESGGGLVQPGGSLRLSCAASGYTFTSYNMHWVRQAPGKGLEWVGAIYPGNGDTSYNQKFKGRFTISVDKSKNTLYLQMNSLRAEDTAVYYCARVVYYSNSYWYFDVWGQGTLVTVSSASTKGPSVFPLAPSSKSTSGGTAALGCLVKDYFPEPVTVSWNSGALTSGVHTFPAVLQSSGLYSLSSVVTVPSSSLGTQTYICNVNHKPSNTKVDKRVEPKSCDKTHTCPPCPAPEAAGGPSVFLFPPKPKDTLYITREPEVTCVVVDVSHEDPEVKFNWYVDGVEVHNAKTKPREEQYNSTYRVVSVLTVLHQDWLNGKEYKCKVSNKALPAPIEKTISKAKGQPREPQVCTLPPSRDELTKNQVSLSCAVKGFYPSDIAVEWESNGQPENNYKTTPPVLDSDGSFFLVSKLTVDKSRWQQGNVFSCSVMHEALHNHYTQKSLSLSPGK light 1: DIQMTQSPSSLSASVGDRVTITCRASSSVSYMHWYQQKPGKAPKPLIYAPSNLASGVPSRFSGSGSGTDFTLTISSLQPEDFATYYCQQWSFNPPTFGQGTKVEIKRTVAAPSVFIFPPSDEQLKSGTASVVCLLNNFYPREAKVQWKVDNALQSGNSQESVTEQDSKDSTYSLSSTLTLSKADYEKHKVYACEVTHQGLSSPVTKSFNRGEC heavy 2: not shown light 2: QPVLTQPLSVSVALGQTARITCGGNNIGSKNVHWYQQKPGQAPVLVIYRDSNRPSGIPERFSGSNSGNTATLTISRAQAGDEADYYCQVWDSSTAVFGTGTKLTVLQQRQVKPEAWLSSGPSPGPGRLQLVCHVSGFYPKPVWVMWMRGEQEQQGTQLGDILPNANWTWYLRATLDVADGEAAGLSCRVKHSSLEGQDIILYWRGSC | -0.0128 nm | 0.0072 nm | -0.0194 nm | 0.0034 nm | -0.0169 nm | 0.0021 nm | -0.0084 nm | 0.0225 nm
3 | 02-009, bivalent bispecific chimeric antibody that specifically binds to CD20 and CSF1R (bispecific antibody, human IgG1, kappa, L234A L235A, Produced in CHO cells) heavy 1: QVQLVESGGGLVRPGGSLRLSCAASEFTFDDYAMSWVRQAPGKGLEWVSAISWNGGSTNYADSVKGRFTISRDNAKNSLYLQMNSLRAEDTALYYCASTVEVAHRRLYKYLEVWGQGTLVTVSSASTKGPSVFPLAPSSKSTSGGTAALGCLVKDYFPEPVTVSWNSGALTSGVHTFPAVLQSSGLYSLSSVVTVPSSSLGTQTYICNVNHKPSNTKVDKRVEPKSCDKTHTCPPCPAPEAAGGPSVFLFPPKPKDTLYITREPEVTCVVVDVSHEDPEVKFNWYVDGVEVHNAKTKPREEQYNSTYRVVSVLTVLHQDWLNGKEYKCKVSNKALPAPIEKTISKAKGQPREPQVCTLPPSRDELTKNQVSLSCAVKGFYPSDIAVEWESNGQPENNYKTTPPVLDSDGSFFLVSKLTVDKSRWQQGNVFSCSVMHEALHNHYTQKSLSLSPGK light 1: QAGLTQPPSVSVAPGQTARITCGGNNIGSKSVHWYQQKPGQAPVLVVYGDSDRPSGIPERFSGSNSGNTATLTISRVEAGDEADYYCQVWDISSDHVVFGGGTQLTVLRTVAAPSVFIFPPSDEQLKSGTASVVCLLNNFYPREAKVQWKVDNALQSGNSQESVTEQDSKDSTYSLSSTLTLSKADYEKHKVYACEVTHQGLSSPVTKSFNRGEC heavy 2: not shown light 2: DIQMTQSPSSLSASVGDRVTITCRASSSVSYMHWYQQKPGKAPKPLIYAPSNLASGVPSRFSGSGSGTDFTLTISSLQPEDFATYYCQQWSFNPPTFGQGTKVEIKQRQVKPEAWLSSGPSPGPGRLQLVCHVSGFYPKPVWVMWMRGEQEQQGTQLGDILPNANWTWYLRATLDVADGEAAGLSCRVKHSSLEGQDIILYWRGSC | -0.0161 nm | -0.0089 nm | -0.0114 nm | 0.564 nm | -0.0158 nm | -0.0154 nm | 0.531 nm | -0.0064 nm
